This note sets out measurements from patent US20240201179A1 (Harvard, published 2024).

The target of this assay is T1, RBD from MERS-CoV (MERS-CoV, UniProt K9N5Q8 367-606).
T1 construct: domain: RBD
Nature of the assay: fluorescence response of the sensor (FIG. 12).

B1: VHH72 noK V104NBDxK (VHH72 noK V104K functionalized with NBDx-NHS at the V104K position) (VHH)
VHH: QVQLQESGGGLVQAGGSLRLSCAASGRTFSEYAMGWFRQAPGREREFVATISWSGGSTYYTDSVRGRFTISRDNARNTVYLQMNSLRPDDTAVYYCAAAGLGTKVSEWDYDYDYWGQGTQVTVSS
notes: also called nanoX; NanoX
For the molecule B1, the binding result was “no binding”.
